Bounds are passed on as bounds.

Assay [1] concerns the target CCR5 expressed on cells (L1.2/R5, Cf2Th-R5, U373/CD4/CCR5) (UniProt P51681). Briefly: flow cytometry on L1.2/R5 cells. (In flow cytometry, cells or beads pass a laser one at a time.)
The target is the same in assay [2]. Briefly: cell-based or functional assay.
Assay [3] concerns the target CXCR4 expressed on cells (L1.2/X4, U373/CD4/CXCR4) (UniProt P61073). Briefly: cell-based or functional assay.
Chain of UniProt P61073 (P61073 whole entry): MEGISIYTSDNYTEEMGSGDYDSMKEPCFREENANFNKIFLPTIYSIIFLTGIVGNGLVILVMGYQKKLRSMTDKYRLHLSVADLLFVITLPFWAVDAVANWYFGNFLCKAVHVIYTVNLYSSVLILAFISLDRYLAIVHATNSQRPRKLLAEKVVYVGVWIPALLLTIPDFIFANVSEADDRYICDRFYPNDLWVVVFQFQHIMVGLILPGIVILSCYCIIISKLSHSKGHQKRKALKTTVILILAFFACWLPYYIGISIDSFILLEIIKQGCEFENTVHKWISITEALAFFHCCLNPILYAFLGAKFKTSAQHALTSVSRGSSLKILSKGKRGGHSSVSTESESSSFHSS

Chain of UniProt P51681 (P51681 whole entry): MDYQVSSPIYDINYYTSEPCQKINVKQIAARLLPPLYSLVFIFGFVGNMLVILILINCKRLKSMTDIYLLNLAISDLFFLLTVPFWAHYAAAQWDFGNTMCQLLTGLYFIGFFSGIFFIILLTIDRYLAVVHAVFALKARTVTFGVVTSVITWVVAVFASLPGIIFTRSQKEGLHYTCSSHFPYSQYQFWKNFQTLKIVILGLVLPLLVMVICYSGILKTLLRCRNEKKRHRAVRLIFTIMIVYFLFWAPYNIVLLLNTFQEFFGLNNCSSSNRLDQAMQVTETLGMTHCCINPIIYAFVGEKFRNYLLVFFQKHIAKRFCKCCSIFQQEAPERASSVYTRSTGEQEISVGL

For “full-length single chain (FLSC) gp120-CD4 chimeric polypeptide (other; other documents disagree on this pair)”, the concentration of maximal binding in assay [1] was 10 µg/mL.

On to “gp120-CD4-IgG1 chimeric polypeptide (Fc fusion)”, for which, in assay [2], the ID90 (µg/mL), neutralization of 89.6 on U373/CD4/CCR5 came out at 3.56 µg/mL; the ID90 (µg/mL), neutralization of ADA on U373/CD4/CCR5 is 4.58 µg/mL; the ID90 (µg/mL), neutralization of BaL on U373/CD4/CCR5 was 3.1 µg/mL. In assay [3], this substance came in with an ID90 (µg/mL), neutralization of 89.6 on U373/CD4/CXCR4 of over 10 µg/mL; an ID90 (µg/mL), neutralization of 2005 on U373/CD4/CXCR4 of over 10 µg/mL; an ID90 (µg/mL), neutralization of 2044 on U373/CD4/CXCR4 of over 10 µg/mL.

In assay [1], “truncated single chain (TcSC) gp120-CD4 chimeric polypeptide (other; other documents disagree on this pair)” yielded a fold higher concentration than FLSC to approach saturation binding of 10 fold.

The values are drawn from patent US20020155121A1.
